{"source": "the DeepSol protein solubility set", "data": [{"experiment": "soluble on expression in E. coli; label from the status in PepcDB or PDB records", "values": [{"sequence": "MTSENSESQDIWLTDEQQDVWLDVWTMRIGLPARLDAQLKEAAGVSHFEYFTMAQISMAPEHRVRMSELAELSDMTLSHLSRVVTRLEKAGWVKRVPDPDDGRATVAVLTDSGWEKVKATAPGHVKEVRRLVFDDLTPEELKVMGTAMKKIVNRLDMSNRLPRV", "soluble on expression in E. coli": "not soluble"}, {"sequence": "MAIQLSKGQRIDLTKTNPGLTKAVIGLGWDTNKYSGGHDFDLDASAFLVDAHDNCVNDLDFVFYNNLEHPSGGVIHTGDNRTGEGDGDDEQIIVDFSKIPAHIEKIGITVTIHDAEARSQNFGQVSNAFVRVVDEETQNELLRFDLGEDFSIETAVVVCELYRHGGEWKFNAIGSGFSGGLAALCRNYGLQV", "soluble on expression in E. coli": "not soluble"}, {"sequence": "MSLSTIAIFGSYVLSRKDGAQDVLRDHWVLVEGKKIAAVTRDRPRADEVYDRPGRFVLPGLLNLHNHCFSEAVARSHSEDGTGRKNNQSIVYTVLLPLTKRGADILSAEERMAVARLGILQLLKGGATTVMEPFRNSIPEMFDAAEEMGIRFYGAPYLFSTSDAKAGPDGVVQYSGDDGTADMATWDALYQRWNNRGDGRISLAMSPHATDTCGPDLLKACAARARELGVPITTHMAQSRAEVETIGKRYGGRTPAQYLDWLGLLAPDLMAAHCMFSTDDDLKLMAARGMTVLNCPRVFARAGVTAAFSRFAEHGVRTVVGTDGYNMDLLGELNAASLISKITSQRADVANSPELIEANTAVAADVIKRPDLGRIEPGATADLTVVDLTHPHLQPLFDPRRALIALANRANIDQVMVDGRVLVDGGRYLGADEAAITAAGSAAIGKIWDLPEAQAAFNGEGHHHHHH", "soluble on expression in E. coli": "soluble"}, {"sequence": "MSLVTFSIRIISSDRIFLVAEVKALERVYVIGHKNPDTDSVCSAIGYAHFKNNVEKGKTFIPARSGDLTNESLFVLKYFGMNPPLHIETLEPTVEDLELKNPIFVTPDTSAYDVAMLMESRGIKNVPVVSKEKMIGVVTESNIARVYVRRLKIEPLVIHPVPFDQLVRILKAEVVCDYMKEKTVSGKVHIAVDALHVLLGKIEIGDVVIVGDNEPAQIALLEKGAKLMIVVNNAPVSNRVLEIAKEKNAAVLRVKFDAFSAAKLINLSLPVTLVMSKKFPTVTKKDTLEEVKEIVFTSKIRAAFVEDEKGRLCGVITRTDLLKDVRKKVILVDHNEITQAPEGVEKAEILEIIDHHRLGGLSTLNPVFFYNEPVGSTSTIVAEFFLKNGVKMEREIAGILLSGIVSDTLFFKLSTTTEKDRKMANFLADVAKLDLEKFAKKLLKEGMKIPEDVDPAELLKRDVKVYEMGEESFAVSQIMTSDFSTLLKEKERFMNTLKTLKGEFGVKHFFVLFTNPVEEASLLMMDGDQKLVEKAFNAEKKDGLFLLKGVMSRKKDFVPKIGEVLRREREGHHHHHH", "soluble on expression in E. coli": "soluble"}, {"sequence": "MKINNKLVGERIQNIRLSHGDSMEKFGEKFNTSKGTVNNWEKGRNLPNKENLLKIASIGKMSVEELLYGDYNTYLHLKIMDLAPECIKNYDEYNSLHDDITNKALQIAQNTISKIDYQISDETIKKFIDLAIEQSRDLQGNLLKNNLSNFDYSLFGGTRNREYFYFGYRLTYKEKYLYTALLAILNESTKTIYIDDINTARFFNFFGNDIPNSSLKKIDYIAPSEIVSFSTYVRQRSKVIPKILEHILKSSFLLENIDVSGYTVNILEDQLTKHRTIKISKN", "soluble on expression in E. coli": "not soluble"}, {"sequence": "MDLLGKLFSRALKLSTLPTKKKRDAFSQQRKVLKKLLKKSANTQFGLRFNFYEILVQFSSGNKKVFYDFYKRRVPVYTYNTLYNEWWYRLKEGEADVTWPGKVQYFALSSGTSDASTKYIPITEQFLKANKKIGIRQLLSLAHYKLPKDLLGKGILMLGGSTHLHKTETYYEGDLSGIQASKIPFWFQYFYKPGSRIARNRDWESKLNDIVESAPDWDIGFIVGVPAWLQILLERIIARYQLKTIHDIWPNLTVFVHGGVAFDPYRKGFEKLLAKPIIYIETYLASEGFIAYQAGPGRKGMKLILDNGIFFEFVPFNEQNINASGDIVVNPKTLMIHEVEEGVDYVLLVSTCAGTWRYMIGDVIRFVDKAQAEIIITGRTKHFISLCGEHLSVDNMNQAIKLVAEELNIIIKEFTVSGIAHDTLFAHQWYIGTDHVIDPVVVSDLLDEKLKLLNDDYRVERTSALKEIFVTILPSQSFYDWMRYRGKEGGQNKFPRVLNKKLHEDWKAFLNQ", "soluble on expression in E. coli": "not soluble"}, {"sequence": "MAHHHHHHMSFHPRDAFILHQEYIQRLNEGDEVDTSAEQKVELNLQRHADSESAATVTFSHEDHTLGNPLRHVIMEDPSVTSAGYAIPHPLEAKMQLHVQSSEYAVETVAKGLERLAAICDETLKSFNACVEAISAEDPEGH", "soluble on expression in E. coli": "not soluble"}, {"sequence": "MSLSKNNETLEALSKEYRDTIPADLRKTNTFDWYLQQLYDEPKIARNAHQRVADMFDYYGKSYDEEAGVVEYELASEDPLHDGENTFYGRVIHEAMHEFVNKVKSGARGLGPEKRIKLLLGPVGSGKSDFDRQVRRYFEDYTSRDEGRMYTFRWTNLCDVIHDQDPADDVVRSPMNQDPLVLLPQAQRDKVIEDINAELDAPYTIRNEQSLDPASEFYMDRLLAEYDDDLQAVLENHVEIVRFVADENQRRGIETFEPKDKKNQDETELTGDVNYSKIAIYGESDPRAFDYSGAFCNANRGIFSGEELLKLQREFLYDFLHASQEQTIKPKNNPRIDIDQVIVGRTNMPEYRDKKGDEKMEAFNDRTKRIDFPYVLQYEAEANIYQKMLRNADLPDIQVEPHTLEMAGLFGVLTRIEEPDNESIDLVQKAKAYNGEIDEADDVDVKKLREEAEKMADIGEGMDGVSPRFIGDEIAEAIMDSMHRSRDFLSPLTTFNHLEGNLENHGSIDEESFSKYYRFLELVREEYKERAIEDVRHALAYDMDEIQRQGEKYMDHVMAYIDDATVEDELTGREQEPDEQFLRSVEEKLNLPEDRKDDFRQEVSNWVSRRAREGDTFNPQDNDRLRRALERKLWEDKKHNINFSALVSSSEMDDEERNQWVDALIEQGYSEEGAKEVLEFAGAEVAKSEMEEEGHHHHHH", "soluble on expression in E. coli": "soluble"}, {"sequence": "TVVEEDTGGNTDLEAVRRTLLAQFEQYAKLNKKIPAEIIGSINGIAENSRLTDTVAAHLQLKLAQRQQILEIPEIGKRMEFLLAQLESELDIMQAEKRIRGRVKRQMEKSQREYYLNEQIKAIHKELGEEDENGELDALEADIKKAGMTKEAEEKCLSELKKLKMMPPMSAESTVVRNYIDTLLELPWKKKSRVSKDIAKAGLVLDADHYGLEKVKERILEYLAVQKRMDKLKGPILCLVGPPGVGKTSLGESIAKATGRKYVRMALGGVRDESEIRGHRRTYIGSMPGKILQNMAKAGVKNPLFLLDEIDKLGNDFRGDPASALLEVLDPEQNNKFADHYAEVDYDLSDVMFIATSNSLNIPTPLLDRMEIIRL", "soluble on expression in E. coli": "not soluble"}, {"sequence": "MAKGIMLHEVGEQVDQYLLIKSSTKGIASNGKPFLTLMLQDQSGDIEAKLWDAKQSDEVTYAPQTIVKVVGDVHHYRGRTQLKLRNIRPVSEQENVNIDDFLETAPIPKNEMMDTITQYIFEMKNPNIQRITRFLVKKHEAEFMDYPAATKNHHEFVSGLAYHVVSMLNLAKAIADLYPSLDRDLLYAGVILHDLGKVKELSGPVSTSYTVEGNLLGHISIMVTELSKAAEELQIDSEEVLILQHLILSHHGKAEWGSPKPPMVKEAEILHYIDNLDAKMNMMDRALERVKPGEYTERVFALENRSFYKPTFHK", "soluble on expression in E. coli": "not soluble"}, {"sequence": "VQVLRLGSVGPDVKLAQSLLNKIGYPVGAVDGIYGTRTRQAVIAFQRNNGLVADGIVGPATWSVFEQFLRGYAIYYVRPGDTLYNIAGRFYTSVNSIVTANPGINPNVINIGQRLVVPYGIDVVFTDIDYTYEIMERDIQGLKARYPFLETGVAGTSVLGRNLYYLRLGTGPRQVFYNAAHHAIEWITTVLLMKFAENFLKAYSTGSRIRGYNVREIWNQSSIYIVPMVNPDGVDLVLNGLSPTNPYYADLLRWNTTGRPFSQVWSANIRGVDLNRNYPASWEEAKAQEEALGIFGPGPTRYGGPYPLSEPESSAMVSFTRTHDFRLALAYHSQGRVIYWNYLNLAPPESLTIANAFARVSGYIVLDVPYEAAYAGYKDWFIQEYRRPGFTIEVGLGQNPLPISQFNTIYNDNEEILLLASLI", "soluble on expression in E. coli": "not soluble"}, {"sequence": "MHHHHHHSSGVDLGTENLYFQSMENRELTYITNSIAEAQRVMAAMLADERLLATVRKVADACIASIAQGGKVLLAGNGGSAADAQHIAGEFVSRFAFDRPGLPAVALTTDTSILTAIGNDYGYEKLFSRQVQALGNEGDVLIGYSTSGKSPNILAAFREAKAKGMTCVGFTGNRGGEMRELCDLLLEVPSADTPKIQEGHLVLGHIVCGLVEHSIFGKQ", "soluble on expression in E. coli": "soluble"}, {"sequence": "MAGFMKNAMSYLGMSDVVDDEDDYIEEDEEQKPASKSAFDSDHTVTPLASTTAPAASSTTKPFPGGRVNRITTIHPKSYEDAQLVGRALRDGVPVVLNLTGVAEAVAYRIVDFSAGVVFGVRGSLERVTPRVFLLSPAQVNIKVEEPTKPASAHDLFADAAALEHHHHHH", "soluble on expression in E. coli": "not soluble"}, {"sequence": "MKFRGNFVCQPRAGPAESRPTRPFTPRPSATGSLFMSNQHFVSPDLIRQGFSRAMSDMYREEVPLYGALMELVAEVNAQVLERQPALARHLQSSGELQRLDLERHGAIRVGSAAELATLARLFAVMGMQPVGYYDLTPAGVPVHSTAFRAVHEAALQVSPFRVFTSLLRLELIDNPELRSFAEQVLARRQIFTPQVLELIQQAEAAGGLDAEDAERFIRQALETFRWHHHATVTAAQYASLSAQHRLIADVVAFKGPHINHLTPRTLDIDEVQRLMPARGITPKAVIEGPPRRECPILLRQTSFKALEESVAFTDQAQSQGSHSARFGEIEQRGAALTPKGRELYDRLLNAARDALGDFPNEANAQRYNQLMQEHFREFPDSHPAMREQGLAYFRYFVSETGLAARNQPQRPTTLAALLAAGHLSAEPLVYEDFLPVSAAGIFQSNLGDDSQSHYAGQSNRQAFEAALGRPTLDELQLYAQTQQRSLEHCAATLGLPALLEHHHHHH", "soluble on expression in E. coli": "not soluble"}, {"sequence": "MGSDKIHHHHHHMRDLLQRPDLFSINTATLGYKTPLPAIIDACAARGIGAIAPWRRELQGEDLQQITRQLAASNMSVSGLCRSTYYTAPTLAERKLAIDDNRRALDDAAVLNAACYMQVVGGLPTGTKDLYEAREQVKQGIRQLLPHSKDVGVPIALEPLHPMTAADRSCLCTLRQALDWCDELDPDGEFGLGVAVDVYHVWWDPDLASQILRAGKRILAFHVSDWLMPTTDLVNDRGMPGDGVINIPSIRRLVENAGFNGAIELEIFSPYWWQKDINSTGNDSNLLIVFYVQIMPDDLVMQLHRF", "soluble on expression in E. coli": "not soluble"}, {"sequence": "MGSDKIHHHHHHMTGTESGASGGQPANSDDWDAVTARREAEALIIDVDGFEGPLDLLLTLSRTQKVDLRRISILALTEQYLVFIEKARQLRIELAADYLVMAAWLAFLKSKLLLPPEPGEEGPSGEDLAAHLAFQLERLAAMRDCAARLMAQDRLGRDRFVRGQTQAMTTNRKVIYTAGLLDLMQAYARIRTKDEFRPFVMDREAVLTMEEALDRLRGMVGYMGDWADLMSYLPDGWTTDPAKRRSAAAANFAAALELAKAGRVEIRQADTFSPIQLRRKEP", "soluble on expression in E. coli": "not soluble"}, {"sequence": "MENREPPLLPARWSSAYVSYWSPMLPDDQLTSGYCWFDYERDICRIDGLFNPWSERDTGYRLWMSEVGNAASGRTWKQKVAYGRERTALGEQLCERPLDDETGPFAELFLPRDVLRRLGARHIGRRVVLGREADGWRYQRPGKGPSTLYLDAASGTPLRMVTGDEASRASLRDFPNVSEAEIPDAVFAAKRLEHHHHHH", "soluble on expression in E. coli": "soluble"}]}]}
